Changes are numbered by the printed parent chain.
T1: mouse MST1R with N-terminal Flag tag, expressed on HEK293T cells (mouse, UniProt Q62190 24-1378)
T1 construct: ORF cloned excluding the signal peptide region; not shown: N-terminal Flag tag from vector pFLAG-myc-CMV-19 (Sigma)
T1 sequence: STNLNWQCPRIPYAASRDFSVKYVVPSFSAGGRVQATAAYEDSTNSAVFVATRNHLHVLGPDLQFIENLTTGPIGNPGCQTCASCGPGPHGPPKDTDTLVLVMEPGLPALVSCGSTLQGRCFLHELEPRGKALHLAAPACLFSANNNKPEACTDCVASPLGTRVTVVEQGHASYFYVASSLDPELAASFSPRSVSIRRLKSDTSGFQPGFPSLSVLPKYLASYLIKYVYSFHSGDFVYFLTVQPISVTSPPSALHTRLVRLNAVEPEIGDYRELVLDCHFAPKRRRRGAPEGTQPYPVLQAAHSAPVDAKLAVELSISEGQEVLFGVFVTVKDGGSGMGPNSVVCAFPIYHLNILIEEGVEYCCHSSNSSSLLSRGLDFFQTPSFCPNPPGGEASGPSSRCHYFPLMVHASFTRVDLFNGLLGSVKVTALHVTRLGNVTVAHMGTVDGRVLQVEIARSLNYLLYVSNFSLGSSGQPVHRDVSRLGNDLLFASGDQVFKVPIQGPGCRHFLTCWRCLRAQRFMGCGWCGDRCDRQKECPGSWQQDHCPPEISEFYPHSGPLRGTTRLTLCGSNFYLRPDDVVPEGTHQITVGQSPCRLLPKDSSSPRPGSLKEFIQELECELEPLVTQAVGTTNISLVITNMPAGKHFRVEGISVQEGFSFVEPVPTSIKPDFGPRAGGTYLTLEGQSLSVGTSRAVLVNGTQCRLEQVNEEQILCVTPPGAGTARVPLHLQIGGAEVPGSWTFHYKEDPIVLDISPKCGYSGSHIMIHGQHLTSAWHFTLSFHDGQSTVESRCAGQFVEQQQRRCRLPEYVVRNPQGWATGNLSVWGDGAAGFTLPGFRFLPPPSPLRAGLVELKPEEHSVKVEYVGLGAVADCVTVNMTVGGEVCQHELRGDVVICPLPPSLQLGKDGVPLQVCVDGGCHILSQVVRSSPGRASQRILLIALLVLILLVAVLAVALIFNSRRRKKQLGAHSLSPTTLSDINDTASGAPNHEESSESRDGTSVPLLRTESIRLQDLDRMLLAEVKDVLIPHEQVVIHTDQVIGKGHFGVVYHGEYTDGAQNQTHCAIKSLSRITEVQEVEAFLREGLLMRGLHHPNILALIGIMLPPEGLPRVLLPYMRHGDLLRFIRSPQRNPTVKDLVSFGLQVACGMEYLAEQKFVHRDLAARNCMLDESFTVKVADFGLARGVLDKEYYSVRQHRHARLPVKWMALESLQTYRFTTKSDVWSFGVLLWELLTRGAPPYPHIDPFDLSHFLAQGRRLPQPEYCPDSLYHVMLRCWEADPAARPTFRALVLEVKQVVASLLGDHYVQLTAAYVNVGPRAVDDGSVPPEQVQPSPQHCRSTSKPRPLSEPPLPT

B1: MOR07923 (human IgG1) (antibody, V domains shown)
VH: QVQLVESGGGLVQPGGSLRLSCAASGFTFNSYSMSWVRQAPGKGLEWVSYISSRSSTTYYADSVKGRFTISRDNSKNTLYLQMNSLRAEDTAVYYCARGYFHGMDYWGQGTLVTVSS
VL: DIVLTQSPATLSLSPGERATLSCRASQSVSFDYLGWYQQKPGQAPRLLIYGASNRATGVPARFSGSGSGTDFTLTISSLEPEDFATYYCFQYLIVPFTFGQGTKVEIKR
B2: MOR07924 (human IgG1) (antibody, V domains shown)
VH: B1 VH
VL: B1 VL with F90Q, L93N, V95N
B3: MOR07925 (human IgG1) (antibody, V domains shown)
VH: B1 VH
VL: B1 VL with F90L, L93F, I94N, V95P, F97H
B4: MOR07692 (human IgG1) (antibody, V domains shown)
VH: B1 VH
VL: B1 VL with F90Q, L93Y, I94N, V95M, F97Y
B5: MOR07926 (human IgG1) (antibody, V domains shown)
VH: B1 VH
VL: B1 VL with Y92A, V95M

Molecular target: MST1R on cells (293alpha cells transfected with pcDNA-DEST40 MST1R; endogenous on PC3, T-47D and BxPC-3 cells) (human, UniProt Q04912 25-1400)
Assay: cell-based or functional assay

Reporter assay IC50 (ng/ml); Elk1 luciferase reporter gene assay in the presence of 100 ng/ml MSP | Binder
9 ng/mL | B1
15.7 ng/mL | B2
5.9 ng/mL | B3
4.4 ng/mL | B4
11.4 ng/mL | B5

Molecular target: T1, mouse MST1R with N-terminal Flag tag, …
Assay: flow cytometry on HEK293T cells transfected with Flag-tagged mouse MST1R (expression shown by αFlag), FITC-labeled secondary antibody
Method: Cells (5×10⁵ cells/well) were incubated with Fab or IgG antibodies at the indicated concentrations in 50 μl FACS buffer (PBS, 5% FCS) for 60 min at 4° C. in round bottom 96-well culture plates (Corning). Cells were washed twice and then incubated with Fluorescein Isothiocyanate (FITC) conjugated detection antibody for 30 min at 4° C. Cells were washed again, resuspended in 0.3 ml FACS buffer and then analyzed by flow cytometry in a Cytomics FC500 (Beckman Coulter, Inc.). Data were analysed via FlowJo software (Tomy digital biology Co., Ltd.). Polyclonal goat anti-hMSP R IgG (R&D systems) or anti-FLAG M2 antibody (Sigma) was used as a positive control and MOR03207 (anti-lysozyme) antibody was used as a negative control.
FACS-analysis of MST1R ortholog-expressing cells: Human MST1R (cDNA nucleotide sequence is shown as GenBank Accession No: NM_{—}002447.2), cynomolgus monkey MST1R and mouse MST1R (cDNA nucleotide sequence is shown as GeneBank Accession No: NM_{—}009074.1) expression vector containing N-terminal Flag tag (pFLAG-myc-CMV-19, Sigma) were constructed. cDNA encoding cynomolgus monkey MST1R was amplified by PCR using cynomolgus monkey stomach cDNA as a template with forward and reverse primers having nucleotide sequences of SEQ ID NO: 34 and 35, respectively. By sequencing analysis of PCR product, the cynomolgus MST1R ORF nucleotide sequence was identified as shown in SEQ ID NO: 36. The corresponding amino acid sequence was shown in SEQ ID NO: 37. Then human, cynomolgus monkey and mouse MST1R ORF cDNA, excluding signal peptide regions, were amplified using respective forward and reverse primers having nucleotide sequences of SEQ ID NO: 38 and 39 (human), 40 and 41 (cynomolgus monkey), and 42 and 43 (mouse) with appropriate cloning sites and then cloned into pFLAG-myc-CMV-19. An amplified human MST1R fragment encodes amino acids corresponding to GenBank Accession No: NP_{—}002438.2 (SEQ ID NO: 45). A Mouse MST1R fragment encodes amino acids corresponding to GenBank Accession No: NP_{—}033100.1 (SEQ ID NO: 47) except for those amino acid differences at positions: 688 (Leu to Pro), 713 (Ile to Val), 714 (Ala to Gly) and 719 (Ala to Val). These expression vectors were transfected into HEK293T cells. For FACS-analysis, cells were incubated with 2 μg/ml primary antibodies followed by incubation with FITC-labeled secondary antibody as described above.

binding result | Binder
no binding (tested: 2 µg/ml) | B1
no binding (tested: 2 µg/ml) | B2
no binding (tested: 2 µg/ml) | B3
no binding (tested: 2 µg/ml) | B4
no binding (tested: 2 µg/ml) | B5
